First the molecules themselves.
B1: CPEB3 Ribozyme (parent)
chain: GGGGGCCACAGCAGAAGCGUUCACGUCGCGGCCCCUGUCAGAUUCUGGUGAAUCUGCGAAUUCUGCUGU

Variants of B1 are the subject of the data set. In words: self-cleavage, relative activity (ratio to wild type); higher = more cleavage; co-transcriptional.
For U36A C45U, the self-cleavage was determined as 0.325.

Turning to C35G G48C, the self-cleavage amounted to 0.531.

Consider C35A A52U, for which the self-cleavage is 0.274.

On to U36A A40U, for which the self-cleavage came out at 0.191.

For C35A G65C, the self-cleavage came to 0.191.

Take C35U A40C: the self-cleavage came out at 0.46.

C35U A40U: the self-cleavage was 0.717.

With C35A U67G, the self-cleavage is 0.288.

C35A U67A: the self-cleavage stood at 0.239.

Consider C35G U38C, for which the self-cleavage was 0.286.

Take C35U U67A: the self-cleavage was 0.95.

Turning to C34G U55G, the self-cleavage came out at 0.475.

As for C34G U55C, the self-cleavage is 0.327.

On to C34G U55A, for which the self-cleavage amounted to 0.386.

Consider C35A U36A, for which the self-cleavage stood at 0.198.

For the variant C34U U67C, the self-cleavage was 1.01.

In the case of C34U U67A, the self-cleavage is 1.01.

For C35G U67C, the self-cleavage is 0.486.

For the variant C34U C66G, the self-cleavage amounted to 0.95.

For the variant C35G U61C, the self-cleavage stood at 0.257.

C35G U61G: the self-cleavage is 0.296.

With C35G U44G, the self-cleavage amounted to 0.373.

In the case of C35A C63U, the self-cleavage amounted to 0.251.

With C35A C63G, the self-cleavage turned out to be 0.22.

With C35U C45U, the self-cleavage turned out to be 0.994.

Take C35U C45A: the self-cleavage is 0.985.

Consider C34G U44A, for which the self-cleavage is 0.579.

Regarding C35G G47A, the self-cleavage worked out at 0.477.

Take C34U U55C: the self-cleavage was found to be 0.823.

Turning to U36A C63A, the self-cleavage is 0.245.

U36A G41A: the self-cleavage came out at 0.146.

Consider C34U G41C, for which the self-cleavage was 0.729.

On to C34U G41U, for which the self-cleavage was 0.901.

For C35G A42C, the self-cleavage is 0.308.

Take C34U A59U: the self-cleavage was 0.778.

As to C35A U38G, the self-cleavage is 0.291.

For the variant C34U G58U, the self-cleavage worked out at 1.

With C34U G58C, the self-cleavage came out at 0.995.

Regarding C34U G58A, the self-cleavage was 0.92.

With C34U G50U, the self-cleavage amounted to 0.987.

With C34U G68U, the self-cleavage turned out to be 1.04.

C35U U69A: the self-cleavage is 0.967.

For the variant C35U C66U, the self-cleavage was 0.905.

Consider C35U C66G, for which the self-cleavage is 0.813.

For the variant C35G, the self-cleavage amounted to 0.478.

C35A: the self-cleavage stood at 0.281.

Consider C35U, for which the self-cleavage amounted to 0.973.

On to C34G U67A, for which the self-cleavage worked out at 0.847.

In the case of C35G U49A, the self-cleavage worked out at 0.444.

In the case of C35G U49G, the self-cleavage was 0.373.

Take C35A G48C: the self-cleavage was 0.281.

Turning to C35A G48A, the self-cleavage was determined as 0.248.

Consider C35A A40C, for which the self-cleavage worked out at 0.288.

Turning to C35A A40U, the self-cleavage was found to be 0.231.

In the case of C35A A40G, the self-cleavage worked out at 0.212.

Regarding C34G U61G, the self-cleavage is 0.311.

For the variant C34G U61A, the self-cleavage turned out to be 0.458.

Take C35U C54U: the self-cleavage is 0.929.

Take C35U C54G: the self-cleavage was 0.72.

Take U36A G48A: the self-cleavage was determined as 0.269.

As to C35U U53G, the self-cleavage came to 0.636.

Regarding C35U U53C, the self-cleavage stood at 0.897.

Take C34U C45A: the self-cleavage is 0.946.

For C35A G68A, the self-cleavage amounted to 0.358.

With C34U G48A, the self-cleavage was determined as 0.986.

For C34U G48C, the self-cleavage was 0.974.

With C34G U53A, the self-cleavage turned out to be 0.569.

Regarding C34U U36A, the self-cleavage came to 0.228.

With C35U U44G, the self-cleavage is 0.835.

C35A C39A: the self-cleavage was 0.209.

In the case of C35G C57U, the self-cleavage was found to be 0.287.

With U36A C66G, the self-cleavage amounted to 0.257.

Take C34U G65U: the self-cleavage came out at 0.824.

Take C34U C57G: the self-cleavage was found to be 0.261.

For the variant U36A A52C, the self-cleavage worked out at 0.24.

For the variant C35U U61C, the self-cleavage came to 0.625.

Take C35U U62C: the self-cleavage is 0.752.

In the case of C35U A52C, the self-cleavage came to 1.01.

Regarding C35U U43G, the self-cleavage was 0.753.

Regarding C35U U55A, the self-cleavage was found to be 0.82.

With C35G G50C, the self-cleavage turned out to be 0.401.

As to C35A A60U, the self-cleavage is 0.181.

In the case of C34U C63A, the self-cleavage came to 0.869.

For C34U C63U, the self-cleavage is 1.

On to C35G A52G, for which the self-cleavage was determined as 0.458.

Consider U36A A42G, for which the self-cleavage amounted to 0.355.

C34G U46C: the self-cleavage came out at 0.625.

Turning to C35G A59G, the self-cleavage is 0.488.

Regarding C35G A59C, the self-cleavage amounted to 0.307.

As to C35U C57G, the self-cleavage was found to be 0.302.

For C35U C57U, the self-cleavage was found to be 0.373.

For the variant C35U G68A, the self-cleavage is 0.992.

In the case of C35A C54G, the self-cleavage came to 0.199.

In the case of U36A C54G, the self-cleavage was 0.215.

As for U36A C54A, the self-cleavage amounted to 0.2.

Turning to C35G U64A, the self-cleavage came to 0.402.

As for C34U U53A, the self-cleavage worked out at 0.975.

For C35G C54A, the self-cleavage worked out at 0.305.

Turning to C35G C54U, the self-cleavage came to 0.497.

For C34U A52G, the self-cleavage was 1.01.

For the variant C35A G58A, the self-cleavage is 0.196.

As to C35A G58C, the self-cleavage is 0.25.

C35U A60C: the self-cleavage came out at 0.368.

Take C35U A60G: the self-cleavage worked out at 0.522.

In the case of C35U A60U, the self-cleavage stood at 0.395.

Regarding U36A A51G, the self-cleavage was found to be 0.249.

C35A U44G: the self-cleavage came to 0.282.

As for C35A U44A, the self-cleavage stood at 0.285.

C35G G41A: the self-cleavage was determined as 0.294.

For the variant C35G G41C, the self-cleavage was 0.295.

For the variant C35A U46C, the self-cleavage turned out to be 0.275.

As for C35G C66G, the self-cleavage was determined as 0.437.

In the case of C35A U69G, the self-cleavage was determined as 0.356.

C34U U62C: the self-cleavage came to 0.896.

In the case of C35G G65A, the self-cleavage stood at 0.357.

In the case of C35G G65C, the self-cleavage amounted to 0.374.

Take C35G C63U: the self-cleavage came to 0.47.

C35G C63G: the self-cleavage turned out to be 0.361.

Regarding C35G C39G, the self-cleavage was determined as 0.343.

On to C35G C39U, for which the self-cleavage came out at 0.263.

U36A A59U: the self-cleavage was found to be 0.146.

For C35U G65C, the self-cleavage is 0.568.

Take U36A C39U: the self-cleavage was 0.237.

As to U36A C39G, the self-cleavage was determined as 0.15.

With C35G U46G, the self-cleavage came to 0.335.

In the case of C35G U46A, the self-cleavage is 0.618.

For C35U G37U, the self-cleavage worked out at 0.258.

Take C35U G37C: the self-cleavage turned out to be 0.22.

Take C34U G37A: the self-cleavage was determined as 0.224.

For the variant C34G U43A, the self-cleavage was 0.551.

For C35A U61C, the self-cleavage was 0.27.

Regarding U36A, the self-cleavage worked out at 0.25.

Consider C35U U64G, for which the self-cleavage amounted to 0.874.

As to C34G U69G, the self-cleavage was found to be 0.926.

In the case of C35G U53A, the self-cleavage was found to be 0.407.

Consider C35G G68U, for which the self-cleavage was found to be 0.687.

As to C34U U61C, the self-cleavage is 0.888.

Turning to C35G U36A, the self-cleavage was 0.21.

Turning to C35G U36G, the self-cleavage is 0.189.

As to C35G U36C, the self-cleavage was 0.36.

Consider C35U G41A, for which the self-cleavage stood at 0.635.

On to C35U G50U, for which the self-cleavage came to 0.94.

U36A G37A: the self-cleavage was determined as 0.213.

U36A G37C: the self-cleavage amounted to 0.198.

For U36A G37U, the self-cleavage came out at 0.259.

As for C35A G50C, the self-cleavage came to 0.252.

For the variant C35A G50A, the self-cleavage came out at 0.216.

C35A C57A: the self-cleavage is 0.218.

Turning to C35A C57G, the self-cleavage is 0.192.

Take C35G G58A: the self-cleavage turned out to be 0.243.

As for C35A A51U, the self-cleavage is 0.223.

In the case of C35U U49A, the self-cleavage is 0.969.

C35G U55A: the self-cleavage was 0.267.

Take C35G U55C: the self-cleavage was determined as 0.33.

Turning to C35G U55G, the self-cleavage is 0.238.

C35U C39U: the self-cleavage worked out at 0.85.

For C35A C45A, the self-cleavage was 0.22.

With C35A C45G, the self-cleavage turned out to be 0.179.

Consider C35A C45U, for which the self-cleavage was determined as 0.261.

In the case of C35A G41C, the self-cleavage came out at 0.237.

C34U U38C: the self-cleavage was found to be 0.962.

C34U U38A: the self-cleavage was found to be 0.935.

With C34U U38G, the self-cleavage stood at 0.227.

Turning to C34U U64A, the self-cleavage came out at 0.974.

For C35G U62C, the self-cleavage was found to be 0.242.

Take C34U U43C: the self-cleavage stood at 0.892.

Consider C34U U43A, for which the self-cleavage came out at 0.967.

The values above are taken from the RNAGym collection of RNA variant scans (doi:10.7554/elife.80360).
